± gives the standard deviation of the averaged measurements.
Tested on: Saccharomyces cerevisiae
Experiment: protein stability index of tFT-peptide fusion (C-terminal peptide) (PSI (0-1 scale)); higher = more stable (slower turnover)
Conditions: genetic background: wild type; temperature: 30 C
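Note: PSI is a weighted mean of sequencing reads over stability bins, variants kept only with over 10 reads, mCherry proximal and sfGFP distal, peptide attached via GGGS linker.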

LSPGTPVSAPRL and RCGDGLSRLTPL are within error of each other in protein stability index: 0.655 ± 0.029 for the first, 0.71 ± 0.032 for the second.

PPPLGPPPPSSL and THHTPKILNTKR are within error of each other in protein stability index: 0.774 ± 0.072 for the first, 0.708 ± 0.063 for the second.

First: GVRRAAFAKYGG
Second: WKQKRGTHNIKD
The protein stability index of the first is lower: 0.655 ± 0.0071 for the first, 0.722 ± 0.011 for the second.

VAPLTPPPSLPF and VVFLWGVFGGSI are within error of each other in protein stability index: 0.671 ± 0.014 for the first, 0.688 ± 0.055 for the second.

SFPLPPLSPPSR and LPSPSPPPPLLL are within error of each other in protein stability index: 0.73 ± 0.048 for the first, 0.677 ± 0.015 for the second.

KNSKKKKLKIER and GVRGGWVVNRGV are within error of each other in protein stability index: 0.804 ± 0.27 for the first, 0.732 ± 0.026 for the second.

LGSIKCKLSSGI and GWPLWGAVRGFW are within error of each other in protein stability index: 0.666 ± 0.052 for the first, 0.71 ± 0.035 for the second.

YTPPNTLCPPVA and LSLALGSPGALP are the same in protein stability index: 0.703 ± 0.24 for the first, 0.703 ± 0.07 for the second.

FFMWDLLFLSLD and ASYGTRHSAPSV are within error of each other in protein stability index: 0.669 ± 0.011 for the first, 0.678 ± 0.0076 for the second.

Going from SSPLSSRFLLCL to KGKRKETKKTKG, the protein stability index rises from 0.579 ± 0.027 to 0.667 ± 0.017.

WMSVCCRSALVD and SGWRGVVGRGGR are within error of each other in protein stability index: 0.65 ± 0.011 for the first, 0.625 ± 0.027 for the second.

CVAGSARVCDVR and RFTPLSFCTDRV are within error of each other in protein stability index: 0.627 ± 0.083 for the first, 0.658 ± 0.025 for the second.

GRGGGGGLWVRV and ARPLHSIGPAII are within error of each other in protein stability index: 0.651 ± 0.023 for the first, 0.658 ± 0.0089 for the second.

Compared with WRRPKAGRHAPC, PPQSPPPGSPPP is lower in protein stability index: 0.685 ± 0.0065 for the first, 0.649 ± 0.013 for the second.

RPYGKQTERYVK and DPSQRRPDCCTY are within error of each other in protein stability index: 0.672 ± 0.029 for the first, 0.729 ± 0.039 for the second.

STLEKTFRVAKR and PPPRRPPPRLLS are within error of each other in protein stability index: 0.694 ± 0.011 for the first, 0.705 ± 0.11 for the second.

GQNASYFPRRTG and WLSMLLTVAPHH are the same in protein stability index: 0.643 ± 0.052 for the first, 0.64278 ± 0.00026 for the second.

LPPRPPRRPESP and PRPPLPHQRPRS are within error of each other in protein stability index: 0.663 ± 0.055 for the first, 0.746 ± 0.13 for the second.

PREFLVYDGVRV and RSISGVNMENVQ are within error of each other in protein stability index: 0.6382 ± 0.0059 for the first, 0.639 ± 0.018 for the second.

Going from HPLPPTGPPSPS to LITGRGFGFVVV, the protein stability index falls from 0.77 ± 0.041 to 0.674 ± 0.024.

VCKGGRIEYGLQ and SLPSRPLSFYSP are within error of each other in protein stability index: 0.666 ± 0.037 for the first, 0.715 ± 0.068 for the second.

Going from PSPPLPLPLLSV to RDAWLGMSQYTF, the protein stability index rises from 0.633 ± 0.029 to 0.7302 ± 0.0051.

PLVFSTSLCVSE and PRDSPPPPPPPP are within error of each other in protein stability index: 0.666 ± 0.0093 for the first, 0.699 ± 0.027 for the second.

GKEKRKEGERRK and PALLRLGTGAVG are within error of each other in protein stability index: 0.697 ± 0.12 for the first, 0.711 ± 0.047 for the second.

First: EILGFVFGFFFL
Second: WSTVCKIAGAID
The protein stability index of the first is lower: 0.5711 ± 0.0016 for the first, 0.706 ± 0.028 for the second.

GLCGGFGGLRGL and AVLGWAGGGWAG are within error of each other in protein stability index: 0.743 ± 0.031 for the first, 0.694 ± 0.11 for the second.

AISSPVLSYATP and IVQETKYFVRRS are within error of each other in protein stability index: 0.657 ± 0.0035 for the first, 0.685 ± 0.082 for the second.

First: GLMYDGVGCGGD
Second: LHGHFIRLIRIG
The protein stability index of the first is higher: 0.671 ± 0.012 for the first, 0.477 ± 0.054 for the second.

SARRFPPPPSSS and RSHRGSPCPLVP are within error of each other in protein stability index: 0.702 ± 0.046 for the first, 0.69 ± 0.025 for the second.

ARSGDSGQPPSQ and INWIHERNDKSI are within error of each other in protein stability index: 0.689 ± 0.05 for the first, 0.734 ± 0.027 for the second.

QFGPSENVEFRS and LFPSPFVASFPP are within error of each other in protein stability index: 0.742 ± 0.036 for the first, 0.765 ± 0.055 for the second.

Compared with LSPPPSLSSRPP, GGGNRGTGCDWG is lower in protein stability index: 0.706 ± 0.064 for the first, 0.628 ± 0.013 for the second.

RAVFFLQAHCSL and TCFWFTCSDPFF are within error of each other in protein stability index: 0.674 ± 0.0072 for the first, 0.773 ± 0.096 for the second.

Compared with VGWQGRWWLWGG, TLDTCVPGANTF is higher in protein stability index: 0.568 ± 0.03 for the first, 0.7127 ± 0.001 for the second.

MNHHSDCLLRLW and VGDGLGGGGQGG are within error of each other in protein stability index: 0.648 ± 0.0084 for the first, 0.664 ± 0.056 for the second.

IYERTEENKRVN and VWGGYGQFYGWK are within error of each other in protein stability index: 0.591 ± 0.0088 for the first, 0.606 ± 0.049 for the second.

Work on PHPLPHASPAPC yielded a protein stability index of 0.6677 ± 0.0019.
